Legend:
[1] = molecular target: human Cluster of Differentiation 3 protein (CD3) (human, UniProt P07766 23-207; P09693 23-182; P04234 22-171; P20963 22-164)
[2] = molecular target: human Cluster of Differentiation 28 protein (CD28) (human, UniProt P10747 19-220)

Row | Kd [1] [nM] | Kd [2] [nM] | Binder
1 | 727 |  | MX1507 (antibody, engineered C-terminal cysteine of the knob chain, joined by maleimide-thiol reaction to DSPE-PEG2000-maleimide on the LNP surface) heavy 1: not shown heavy 2: QVQLVQSGAEVAKPGASVKVSCKASGYTFTRYTMHWVKQAPGQGLEWIGYINPSRGYTNYAQKFQGKATLTTDKSTSTAYMELSSLRSEDTAVYYCARYYDDHYSLDYWGQGTTLTVSSASTKGPSVFPLAPSSKSTSGGTAALGCLVKDYFPEPVTVSWNSGALTSGVHTFPAVLQSSGLYSLSSVVTVPSSSLGTQTYICNVNHKPSNTKVDKKVEPKSCDKTHTCPPCPAPEAAGGPSVFLFPPKPKDTLMISRTPEVTCVVVDVSHEDPEVKFNWYVDGVEVHNAKTKPREEQYNSTYRVVSVLTVLHQDWLNGKEYKCKVSNKALAAPIEKTISKAKGQPREPQVCTLPPSRDELTKNQVSLSCAVKGFYPSDIAVEWESNGQPENNYKTTPPVLDSDGSFFLVSKLTVDKSRWQQGNVFSCSVMHEALHNHYTQKSLSLSPG light: DIQLTQSPSSLSASVGDRVTITCRASQSISYLNWYQQKPGKSPKRWIYDTSKLASGVPSRFSGSGSGTDYTLTISSMQPEDAATYYCQQWSSNPLTFGGGTKVEIKRTVAAPSVFIFPPSDEQLKSGTASVVCLLNNFYPREAKVQWKVDNALQSGNSQESVTEQDSKDSTYSLSSTLTLSKADYEKHKVYACEVTHQGLSSPVTKSFNRGEC
2 | 6.92 | 2.55 | MX1243 (antibody) chain 1: not shown chain 2: DIQLTQSPSSLSASVGDRVTITCRASQSISYLNWYQQKPGKSPKRWIYDTSKLASGVPSRFSGSGSGTDYTLTISSMQPEDAATYYCQQWSSNPLTFGGGTKVEIKGGGGSGGSGSGGGGSASGSGQVQLVQSGAEVAKPGASVKVSCKASGYTFTRYTMHWVKQAPGQGLEWIGYINPSRGYTNYAQKFQGKATLTTDKSTSTAYMELSSLRSEDTAVYYCARYYDDHYSLDYWGQGTTLTVSSASGGSGDKTHTCPPCPAPEAAGGPSVFLFPPKPKDTLMISRTPEVTCVVVDVSHEDPEVKFNWYVDGVEVHNAKTKPREEQYNSTYRVVSVLTVLHQDWLNGKEYKCKVSNKALAAPIEKTISKAKGQPREPQVCTLPPSRDELTKNQVSLSCAVKGFYPSDIAVEWESNGQPENNYKTTPPVLDSDGSFFLVSKLTVDKSRWQQGNVFSCSVMHEALHNHYTQKSLSLSPG
3 |  | 1.34 | MX1506 (antibody, engineered C-terminal cysteine of the knob chain, joined by maleimide-thiol reaction to DSPE-PEG2000-maleimide on the LNP surface) heavy 1: not shown heavy 2: QVQLVQSGAEVKKPGASVKVSCKASGYTFTSYYIHWVRQAPGQGLEWIGSIYPGNVNTNYNEKFKDRATLTVDTSISTAYMELSRLRSDDTAVYFCTRSHYGLDWNFDVWGQGTTVTVSSASTKGPSVFPLAPSSKSTSGGTAALGCLVKDYFPEPVTVSWNSGALTSGVHTFPAVLQSSGLYSLSSVVTVPSSSLGTQTYICNVNHKPSNTKVDKKVEPKSCDKTHTCPPCPAPEAAGGPSVFLFPPKPKDTLMISRTPEVTCVVVDVSHEDPEVKFNWYVDGVEVHNAKTKPREEQYNSTYRVVSVLTVLHQDWLNGKEYKCKVSNKALAAPIEKTISKAKGQPREPQVCTLPPSRDELTKNQVSLSCAVKGFYPSDIAVEWESNGQPENNYKTTPPVLDSDGSFFLVSKLTVDKSRWQQGNVFSCSVMHEALHNHYTQKSLSLSPG light: not shown
4 | 1050 |  | MX1500 (antibody) chain 1: not shown chain 2: DIQLTQSPSSLSASVGDRVTITCRASQSISYLNWYQQKPGKSPKRWIYDTSKLASGVPSRFSGSGSGTDYTLTISSMQPEDAATYYCQQWSSNPLTFGGGTKVEIKRTVAAPSVFIFPPSDEQLKSGTASVVCLLNNFYPREAKVQWKVDNALQSGNSQESVTEQDSKDSTYSLSSTLTLSKADYEKHKVYACEVTHQGLSSPVTKSFNRGECGGGGSGGGGSGGGGSGGGGSGGGGSGGGGSGGGGSGGGGSQVQLVQSGAEVAKPGASVKVSCKASGYTFTRYTMHWVKQAPGQGLEWIGYINPSRGYTNYAQKFQGKATLTTDKSTSTAYMELSSLRSEDTAVYYCARYYDDHYSLDYWGQGTTLTVSSASTKGPSVFPLAPSSKSTSGGTAALGCLVKDYFPEPVTVSWNSGALTSGVHTFPAVLQSSGLYSLSSVVTVPSSSLGTQTYICNVNHKPSNTKVDKKVEPKSCDKTHTCPPCPAPEAAGGPSVFLFPPKPKDTLMISRTPEVTCVVVDVSHEDPEVKFNWYVDGVEVHNAKTKPREEQYNSTYRVVSVLTVLHQDWLNGKEYKCKVSNKALAAPIEKTISKAKGQPREPQVCTLPPSRDELTKNQVSLSCAVKGFYPSDIAVEWESNGQPENNYKTTPPVLDSDGSFFLVSKLTVDKSRWQQGNVFSCSVMHEALHNHYTQKSLSLSPG

From patent publication US20250161481A1 (published 2025)
